experiment: yeast display, Sf9 membrane polyspecificity reagent, FACS + sequencing; frameworks hold sequencing errors
In short: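 Nanobodies came from a synthetic yeast display library in Saccharomyces cerevisiae BJ5465, induced with galactose for 36–48 hours and stained for 1 hour at 4 °C with 10% biotinylated, detergent-solubilized Sf9 membrane reagent. Cells were enriched on streptavidin microbeads and then FACS-sorted, with low and high (top ~1%) gates set on anti-HA fluorescence for expression and streptavidin fluorescence for reagent binding. Each polyreactivity label reflects the gate a clone came from. Genes were amplified by colony PCR, sequenced by MiSeq 2 × 250 and filtered by CDR length.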

Sequence	polyreactivity (PSR sort gate)
QVQLQESGGGLVQAGGSLRLSCAVSGTIFFPLDMGWYRQAPGRELEYVAAIAEGTSTYYADSVKGRFTISRDNAKNTVYPQMYSLKPEDTAVYYCAAYRSTPQQFHYWGQGTQVTVSS	high polyreactivity
QVQLVESGGGLVQAGGSLRLSCAASGRTFYDYAMGWYRQAHGKERELVAAIRLSGASTYYADSVKGRFTISRDNAKNTVYLQMNSLKPEDTAVYYCAARYGGRVAYRGYSYYYWGQGTQVTVSS	high polyreactivity
QVQLVESGGGLVQAGGSLRLSCAASGSNIRSNAMGWYRQAPGKERELVAAISRTGGRTYYADSVKGRFTISRDNEKNTVYLQMKSLKPEYTAVYYCAASSSGSGGYWGQCTQVTVSS	high polyreactivity
QVQLVESGGGLVQAGGSLRLSCAASGSIFRYYAMGWYRQAPGKEREFVARISVSGGSTYYADSVKGRFTISRDNAKNAVYLQMNSLKPEDTAVYYCNTADFRSRYPAMGYWGQGTQVNVSS	low polyreactivity
QVQLVESGGGLVQAGGSLRLSCAASGLTYAKYVMRWYRQAPGNERELVAAISRSGGSTFYADSVKGRFTISRDNAKNTVYLQMNSLKPEDTAVYYCAAAAWDPKGSRYDYWGQGTQVTVSS	low polyreactivity
QVQLVESGGGLVQAGGSLRLSCAASGIIFTDYAMGWYRQAPGTERELVAAISSGGGSTYYADSVKGRFTISRDNAKYSVYLQMNSLKPDDTAVYYGAAQSSGSYGFDHWGQGTQVTVSS	high polyreactivity
QVQLVESGGGLVQAGGSLRLSCAASGSTFGSYAMGWYRQAPGKERELVASISLSDGSTYADSVKGRFTISRDNAKNTVYLQMNSLKQEDTAVYYCNVDWFSHDSDYYSFAYDYWGQGTQVTVSS	high polyreactivity
QVQLVESGGGLVQAGGSLRLSCAASGSTFHWYDMGWYRQAPGKERELVAGINSSGDGTYYADSVKGRFTISRDNAKYTVYLQMNSLKPEDTAVYYCAAPWWYYGVPYQTNKYDYWGQGTQVTVSS	low polyreactivity
QVQLVESGGGLVQAGGSLRLSCAASGRIFATNARGWYRQAPGKERELVAVISSGGSTNYADSVKGRFTISRDNAKNTVYLQMNSLKPEDTAVYYCAASPGSRPTQPYDYWGQGTQVTVSS	low polyreactivity
QVPLVESGVGLVQAGGSLRISCAASGFTFSRYAMGWYRQAPGKERELVAAISRTGGRTYYADSVKGRFTITRDNAKNTVYLQMNSLKPEDTADYYCARVPVHSHLRQTYAMEYWGQGTQVTVSS	high polyreactivity
QVQLVESGGGLVQAGGSLRLSCAASGSTFHTYGLGWYRQAPGKERELVAAIDLSDGSTYYADSVKGRFTISRDNAKNTVYLQMNSLKPADTAVYYCKADYFPKPYRPDDYWGQGTQVTVSS	low polyreactivity
QVQLVESGVGLVQAGGSLRLSCAASGSTFGGYAMGWYRQAPGKERELVAAITSRSGRTYYADSVKGRFTISRDIAKNTVYLQMNSLKPEDTAVYYCATPQYPGRDYWGQGTQVTVSS	high polyreactivity
QVQLVESGGGLVQAGGSLRLSSAASGIIFAVYAMGWYRQAPGKERELVAAISTSGGRTYYADSVKGRFTISRDNAKNTVYLQMKSLKPEDTAVYYCAAPLRVSYDGMYYWGQGTQVTVSS	high polyreactivity
QVQLVESGGGLVQAGGSLRLSCAASGRTFYRNAMGWYRQAPGIERELVAVISQRGGRTFYADSVKGRFTISRDNAKNTVYLQMNSLKPEDTAVYYCAAPTQSYAHQGFGYWGQGTQVTVSS	high polyreactivity
QVQLVESGGGLVQAGGSLRLSCAASGSTFIGNAMGWYRQAPGKERELVAAITRSGGSTFYADSVKGRFTISRDNAKNTVYLQMNSLKPEDTAVYYCSAKGNPYRVPGSSYPKVNYWGQGTQVTVSS	high polyreactivity
QVQLVESGVGLVQAGGSLRLSCSASGSTFFGNGMGWYRQAPGKERELVAAISGGGSTHYADSVKGRFTISRDNAKNTVYLQMNSLKPEDPAVYYCSPSRDTVGRGPIQRDYWGQGTQVTVSS	low polyreactivity

From the nanobody polyreactivity screen of Harvey et al. (2022)
